Drawing on patent publication US20220282255A1, this text covers cell (luciferase assay inhibitory rate (%)) for one substance.

The target in the assay is Recombinant Human TGF-β1, manufactured by Peprotech (human) (UniProt P01137). Briefly: cell-based or functional assay.
Recombinant Human TGF-β1, manufactured by Peprotech (human), sequence (P01137 279-390 limits assumed): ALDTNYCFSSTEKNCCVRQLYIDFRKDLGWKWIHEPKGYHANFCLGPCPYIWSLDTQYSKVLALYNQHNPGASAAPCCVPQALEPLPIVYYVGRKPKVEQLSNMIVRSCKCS

On to known TGF-β antibody (R&D, MAB1835), for which the cell (luciferase assay inhibitory rate (%)) was determined as 100%.
